Results from a protein production outcome set (Wang et al. 2014).

Test: label from the status in PepcDB records
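Further: failed if final PepcDB status was selected cloned or expressed and not failed if soluble or beyond.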

Row | Sequence | protein production
1 | MKTLHTDVAIIGAGTAGLAAYRAARAAGKRALLIEGGQYGTTCARVGCMPSKLLIAAAEAAHAAAHGGPFGVHIDGAVRIDGAQVMARVKSERDRFVGFVLEGVENIPAEDKLRGMARFVEDTVLRVDGHTEVRAGSVVIASGSRPAVPPPFLALGDRLVVNDDVFAWDTLPARVAVFGPGVIGLELGQALARLGVQVRVFGVSGSLGGITDPRVRQSARKAFQQEFYLDPDARVLETKRVGDEVEVRYVALDNTERTERFDYALVATGRRPNVDGLDLHNTSLALDARGVPHFDRHTMQAGQAPVFIAGDANADAPLLHEAADEGRIAGENAARYPDVAPGLRRAALGVVFSDPQIALVGTPFARLESGTFVAGEVDFGDQGRSRVMLRNRGMLRVYADIESGRFVGAEMVGPSAEHIGHLLAWAAQQSLTVAQMLEMPFYHPVVEEGLRTALRDAAARLAQARPQRLAA | failed
2 | MEENMEKNKIKKIALIFNILQVIALAVFEVVLFRLVSYKNKLILDYVPAKYFIILEVVLVAITIIPFLIRKGKKTSIISMVISILMAIVLFATSILGVVYDKDIKNVLNKADQTIDDVVENSKLSTEEYGVYILKSDEAEELKDIENYNLGYNLSYAKDETDSVLKNVLAKANNKLIANEYDDLLKMADELLNTEKTAFIFNQAMLDLIENAGDDTNDGKNNGIYKNFTNKIKCIYVVNVKTAVKEYGGDKNVTKECFNVYISGIDTEGDVTAKSRSDVNIIMSINPVTHQVLLLSTPRDYYVPLSISNGVKDKLTHAGNYGINVSMDTLEMLYDIKLDYFIRLNFTGFVDIIDALGGIDVVSDYSFSTHGYSYSEGLNSNLSGIQALWFARERHAFAEGDKQRGRDQMKVIEAVIKKAQSSALLNNYDEIFANISKSFQTNMPKKDIKALVKYQLNETPNWKVVSTSVTGTGRSDVTYSVPNSRAYVMDPDENSVNEAKKLLQKIQNNKKIKVKTTTE | failed
3 | MSAPLFSVVVPAYNQHKFIDSCLTSLQRQTLTDFEVFVVDDCSTDDTGEQIAALIKGDDRFHVITHAHNRGVSAARNSGMAAAKGKYLCFVDGDDWVEPDFLATFLAAYRSAPDTQLVVCGHYGYLAVPSPAKTYNQKDLIANINFGTVGGFSWNKAFIRSIITTHHLKFNEDIDFLEDQLFAFRYANYVQSSEYVPDRTYHYRWRFRSNLAHIGIPFFTARRKMMKILKQENKQVLNEDWNNQLEHHHHHH | failed
4 | MRKINIFKGKHNPQRTAIDFFKYVGPGLLVTVGFIDPGNWASNVSAGSDYGYSLLWIVTLSTIMLIILQHNAAHLGIVTGDCLSEAVSKKFKPWLTNIILYSAIGAAISTAMAELLGGAIALNMLFRLPIKIGTLIMLSLVIWMLFSSSYKKLERWIIGFVSIIGLSFIFELLLVKVNWQVAAVSFVSPSFPKNSMPIIMSVLGAVVMPHNLFLHSEIIQSRQWNVEKEDVIKRQLRYEFLDTIISMIVGFAINSAMVLLAASTFFKMHVSVSELSQAQALLKPLLGGSASVVFALALLFSGIASTVTAGMAGGSIFAGIYKEPYDIEDSHTQIGVIITMVLAAVIIFFIKDPFKGLIYSQMILSIQLPITIFTQIYLTSSKKVMGKFSNSLLDRVLLGIIAVIVTALNIALLVSYF | failed
5 | MKHPDALRIALVGIGKIARDQHVPTIAARDDVQLVATVSRHGTVDGVPAYHTLEDAFAAQPQIEAVALCTPPVGRHALAQAALAAGRHVFLEKPPAATLAEIHDLQDVAQRAQRTLFTSWHSRCAAGVEPARAWLADKQLVRAHITWKEDIRHWHPGQDWILEPGGMGVFDPGINALSIATHLLPRSLALRDAELHTPENRQAPLYARLAFVDTAGLPVTAEFDFLQTGHQRWDIEVETTAGMLMLSEGGAKLRIEGQLQALPASSEYDGLYGRFVQLVRAGQSEVDIAPFVHVADAFMLGARQVTAPFAW | failed
6 | MITYHSNALQSERQMYVWTPPGYTGMGEPLPVLYFYHGFGDTGRSAIDQGRIPQIMDNLLAEGKIKPMLVVIPDTETDAKGIIPEDFVPQERRKVFYPLNAKAADRELMNDIIPLISKRFSVRKDADGRALAGLSQGGYQALVSGMNHLESFGWLATFSGVTTTTVPDEGVAARLNDPAAINQQLRNFTVVVGDKDVVTGKDIAGLKTELEQKKIKFDYQEYPGLNHEMDVWRPAYAAFVQKFKIRHLEHHHHHH | failed
7 | MSLKTLNIYLMRHGKVDAAPGLHGQTDLKVKEAEQQRIAMAWKTKGYDVAGIISSPLSRCHDLAQILAEQQLLPMTTEDDLQEMDFGDFDGMPFDLLTEHWKKLDAFWQSPAHHSLPNAESLSTFSQRVSRAWSQIINDINDNLLIVTHGGVIRIILAHVLGVDWRNPQWYSTLAIGNASVTHITITIDDQIYASVRSIGVPLVEEGHHHHHH | not failed
8 | MRITHLGHSCILVEAAGQRILVDPGNLSRSWRGLTDLDAILVTHRHPDHVDPEHIGALVDANSGAVVRAEEGACHEIPALDADPVAPGDVLQIGEVRIEAVGGRHAVIHRDLEPIGNVGYLIGEGLGTILYHPGDELDETPRGVDVLACPAHAPWAAMKETVDFARSVGARHGFLIHEGLLNGRGWQLSFDRHQEMVP | failed
9 | MEFKDYYATLGVEPSAGDAEIKTAYRRLARKYHPDVSKEAGAEDKFKAINEAYEALRDPAKRKAYDQLKAQGFRPGDEFQAPPNYGGGQGFDFEEVFGNGGAGGGFSDFFESLFAGQRGGRPRGPGAGPGAGAGPQARGDTRAKLAVPLEAVYSGDSVRITINGKQLDVRVPKGVQPGQVIRLSGQGNGGGNLLLEIEYAAHPHFEVDGRNILYTLQVMPWQAALGTTISVPTLGGSVELKVPADSDAGRKLRLRGRGLPGTTPGDQIVELEILAPAPTDDAQKKAYRNLAKAFGETVS | failed
10 | SLLSVDMEMQIPFHDVDSMGITWHGNYLRYFEIARCKLLDELGYNYRQMQASNYAWPIIDLQIKYVKTSTFEQKITVRAELVEWENRLKINYQIRDVETGARITKGYTIQAAVDMCTQELCFVTPEVFRDKIATLFAKVE | failed
11 | MLSSGITKAKGMAVVSEGSVPMDQSVGHLPASLLSLVSDPVPKEKVLLPKALRQTLLEKGCHNVRAHGFDAISTQASACSSVAQAGARHTQPSSRARAQVRGHTGDPLASTVSPDLTPDVYVLRVKLEETGELFRVANCRNDMTVRELKEELDLMVGIPFNLQRLHFLDRGILMDDATLKFYDVIPGALISLCIWHYDGWTELVLAAVEGDPSKMSCLGISEDTFYRTANSQHFKGEQWRQWTAQRAFVALYISAHRGHVDAVQYLLGLGANCLAKSPLGRTPLHVVAAMGRTDCVQPLLEHGASIHDRDLKSDTPITIARRLKRGHLEHKMFLLYWMVKSGSRDPDLVGRKALEKSSPGMATRRSTILIS | failed
12 | MMKKAGLYIHIPFCLQKCNYCDFFSVRAGRFKNILSGHLSPFVLRLAEDIKIQADKYSINEWDTVYIGGGTPSLLSPDDLYYLSSQIPAAQKNPHREFTVEINPEDLTKDFLSAAVSGGINRFSVGIQSLNDEVLSACKRRGCRKMSLSALELLRSQKGLILSCDLIAGLNKQSLGILKDDIQTLLHFKPEHFSLYALCSNTKLPPEKDDEIAELWSYGKDILEKNSYNKYEVSNFSYKNLYKSIHNEKYWRLEDYIGVGPGAFGSIFFDRKVLHANAHANALRFSAIKNIEKWMTLKNRDEVYEYETIDEKEFIEEAFMMGLRLTEGIDRSFFKSRFGKDISVFAGKTISKWLDRNEAVLTEKRFYLTEKGFLYLNLFLQELFQEIDSLF | failed
13 | METLLIQQTEKSNKFWKIVVKEKDYVVFYGKIGTAGSVKAKEFETEEECMNEANKLVASKRKKGYIDPLPGEDYIKEKTITEEEFWELLHRAKTKGEDQEEQIEWLTSHLAKRTVHEIVAFDTHMHSLLKDSYTSRLWAAAYIIMGGCSDDTFDYFRGWLLYQGKETYEACIEDPERLIPVLENLSEYDVPEIEELSLYFGFTVYAEKTGDEDDTYFTLYHVLSNEEFDDVDFEFDWNEDDEEGLKKVFPRLWEMYGEEPIEWLEHHHHHH | not failed
14 | MDINIGTTHKVFHVLSKIGPAWIVMMADVDVASIITGLQSGAEFGFHMIFVMLILIPPLFIVQNAAGYLGIYSGMGVGEAIRQRYGRRLALLAAIPMASTDILSYIAEYSGIAIGLYMVGVSPYISVPVVFVIHNLIVLMRRYGRIESILMIVSVGLVLFIIVSVALMKPSWHSVILTGLNPIQPYGNHDFDIMIIANLGAIIMPFMIFYQAGASVQKSLLDQDIKISRNETAIGSIVSEVLMVMIVIAGTFIGGYATEPKMLAAALLPFGTYAYYITAAGFVTAGFLALIVISLASSWGIAEALGWKLYSGRRRGMHKAQMKGLTEERSDCDRRKFIYLYMGESIPAAAIALSFSAYLLPLVIDLMIVFVLVLAPVGVLLGLLVSDQKIMNGHRLSKRYMALFWFTLAIIEIAGLYSIITSI | failed
